Source: the supplement of paper PMC12042874
± gives the uncertainty stated by the source.

Test: amyloid nucleation score (Sup35N fusion, yeast selection) (log enrichment); library NNK1; higher = more nucleation; inactive = no reads after selection
Outline: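 Yeast lacking psi expressed peptides of 20 random codons fused to Sup35N, received 100 μM copper sulfate for 24 hours, and were then grown for 7 days at 30°C on medium lacking adenine and uracil. Illumina sequencing of input and output plasmid inserts provided the reads. Nucleation scores are DiMSum log enrichments of output over input, centred on the mode of non-aggregating sequences. Any sequence with under 100 input reads was excluded.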

| Substance | amyloid nucleation score |
| --- | --- |
| FVLVMLNMQ | 4.4 ± 0.093 |
| FVMLFSCRST | 0.38 ± 0.76 |
| FVSIRCVKYASYISHSHGLV | inactive |
| FVSSSKLIGCLVRHQKMANR | 0.258 ± 0.59 |
| FVSYTSP | -0.079 ± 0.33 |
| FVTDMAYNMMESGLHT | 6.44 ± 0.044 |
| FVTQAGRGMHR | 0.682 ± 0.75 |
| FVVGSRFMKIHVSGGDLGFF | -0.144 ± 0.39 |
| FVVSDIMGDLRKM | 1.38 ± 0.71 |
| FVVSDTGKVKWGMAQ | 2.68 ± 0.14 |
| FVYCNAAIAISSFGTWEPKG | 2.9 ± 0.1 |
| FWATRVTWLDEMLIYYCLVN | 0.155 ± 0.36 |
| FWISRYVLQKDWKGWICTEL | -0.338 ± 0.83 |
| FWLILFIVFIKYMNILFRTC | 1.08 ± 0.27 |
| FWPGFSWSIKLQLTFG | -0.326 ± 0.3 |
| FWQIAGRGFGRYG | -0.258 ± 0.45 |
| FWTAPKLARDMSVLVTVFFY | -1.4 ± 2.1 |
| FWTKSGSEEIITMVSTVRWR | -0.749 ± 1.1 |
| FWWIGYKTSSDGPRAVAIWC | -0.137 ± 0.26 |
| FYAVVEQIKFMRSLNLNLLN | -0.08 ± 0.36 |
| FYDPALMSITNSD | 1.73 ± 0.15 |
| FYGCNSRA | -0.037 ± 0.97 |

| Substance | amyloid nucleation score |
| --- | --- |
| FYLRSSTNEPRENNVNLALY | -0.345 ± 1.7 |
| FYPFLQR | 1.48 ± 0.63 |
| FYQTS | 0.634 ± 0.4 |
| FYRASKDCLAKVRRVGC | 0.482 ± 0.59 |
| FYRSLVVNM | -0.081 ± 0.96 |
| FYSNWRYDGYWDDLGMNIIV | -0.372 ± 0.4 |
| FYTVSCLVCLGL | 8.507 ± 0.047 |
| FYVRCREMSRGVWWSTSVR | -0.188 ± 0.34 |
| GACYNSGCCFNPLDWYK | 0.904 ± 0.57 |
| GAFNQSMDSCGFMFPHNMRP | 0.724 ± 1 |
| GAIFYGVCCIRPNWNVVSTS | 5.69 ± 0.059 |
| GALCCLCRSNHYVLQCGVKC | 1.47 ± 0.7 |
| GALGWWSSFVCEEAGKLTLR | 0.792 ± 0.48 |
| GASFVGTGKWVLTGWKTRRF | 0.124 ± 0.97 |
| GAYYGRSSKELGNNEGTGTG | 0.51 ± 0.52 |
| GCAQRKVAPWNRGLRQ | -0.501 ± 0.62 |
| GCFEFVCEVAVGVSLDYSYL | -0.085 ± 0.28 |
| GCILHFHSGRGYIGSRMVGW | 1.31 ± 0.32 |
| GCKSGDGQRVGVLLNQNCTR | 0.863 ± 0.56 |
| GCLKTVGCA | -0.22 ± 0.64 |
| GCNMII | -0.34 ± 0.38 |
| GCQLLYAKHIQSIMSQRPKN | 0.374 ± 0.65 |

| Substance | amyloid nucleation score |
| --- | --- |
| GCRPG | -0.151 ± 0.59 |
| GCSLWVGVLCKNCFFDDLIM | 5.807 ± 0.055 |
| GCSVAASSESNNRSQQVGLT | 1.02 ± 0.84 |
| GCVSVPYQLPPLISYGLVN | -0.123 ± 0.62 |
| GDISYVSASLQLFNWVLSCV | 3.97 ± 0.13 |
| GDLRSSILRLPTWRLWWITT | 0.174 ± 0.29 |
| GDRVAEFQFPLSYTRPELSL | 0.046 ± 0.72 |
| GDSLTLTLFRIIYIGFRTDY | -1.03 ± 0.44 |
| GEDGG | 0.148 ± 0.52 |
| GEFTRGDTSKWFLLDK | 0.577 ± 0.56 |
| GELTIYCSVVPYVVSR | 0.415 ± 0.44 |
| GETRGVPPNFFTPIIQLSSA | inactive |
| GEYLRLSIWGLDKDNKGVQ | -0.073 ± 0.42 |
| GFFLVLYHCFYWISRVR | 0.737 ± 0.58 |
| GFGAQPWRARSMFYK | 0.566 ± 0.67 |
| GFHEIMLYYSYIKVLVIDSH | 0.387 ± 0.75 |
| GFLCQSRVLAML | inactive |
| GFPLQSKDTARNIGTQFLEW | -0.003 ± 0.4 |
| GFRFEMSRQIHKWQSSCLLY | 0.489 ± 0.6 |
| GFSANGLPCGAEAGEVFYTV | -0.725 ± 0.81 |
| GFSRYSPRSKFFNSLVLKSS | -0.171 ± 1.1 |
| GFSWSNITKCGWACGSDGMK | 0.676 ± 0.45 |

| Substance | amyloid nucleation score |
| --- | --- |
| GFTFVLLLSLGLVGWCETVK | -0.511 ± 0.68 |
| GFYGRL | -0.774 ± 0.74 |
| GFYLRYYLGISVRHYNHVIW | 1.19 ± 0.72 |
| GFYPHANLTMFRALNKCGEV | 0.501 ± 0.53 |
| GFYSLHTALARIPHEHAVFF | -0.018 ± 0.61 |
| GGECYLLEYLSMSGVYCFRI | -1.25 ± 1.4 |
| GGFFKRL | 0.161 ± 0.36 |
| GGLGVDATGYHVSTEGEELE | -0.275 ± 0.43 |
| GGLILYKKNREFSSLQFSCV | -0.523 ± 0.46 |
| GGQITYPMDLKVGRLCEDAL | inactive |
| GGSRTIVP | 0.411 ± 0.48 |
| GGTCVRQFMVLDTHSHADEC | 0.66 ± 0.56 |
| GGYGCDGCLSNCMRLNGVWV | inactive |
| GGYVIF | 0.212 ± 0.56 |
| GHDVWKANSLTRVKLREYYG | 0.546 ± 0.35 |
| GHHVRLLFLCVHTISYMESR | 0.582 ± 0.9 |
| GHRVAGCFSMSGVG | 1.25 ± 0.44 |
| GHTLRDVWASVEVRSNVDLD | 0.54 ± 0.82 |
| GHYRFVSFRFSWAEGAQLRG | 1.68 ± 0.25 |
| GICCYNFGRCKMRASPGLCG | -0.999 ± 1.3 |
